As a reminder, the MIC is the smallest concentration in the dilution series that meets the test's criterion for growth inhibition. As usually defined, the MBC is the lowest tested concentration that kills the bacteria rather than only halting them. Read a high MBC as weaker bactericidal potency.

Read-outs that look alike come from different tables or passages of the source. Bounds are passed on as bounds.

The test system of assay [1] is Listeria monocytogenes biofilms. Kind of assay: MBEC assay (MBEC Assay Biofilm Inoculator), anti-biofilm activity. Type of assay: cell-based. As to the method:
(§1) The anti-biofilm activity of histone H5 against P. aeruginosa and L. monocytogenes biofilms was assessed using the MBEC Assay Biofilm Inoculator (formerly the Calgary Biofilm Device (CBD)).
(§2) The preparation of the bacterial suspension was the same as described in the determination of the MIC and MBC, except that the bacterial suspension was adjusted to 10^5 CFUs/ml in LB broth (BHI broth for L. monocytogenes), not PBS. Wells of an MBEC™ Assay Biofilm Inoculator (Innovotech, Edmonton, AB), which contains pegs projecting downwards from the lid that serve as a surface for biofilm formation, were inoculated with 150 µL of bacterial suspension. The plate was incubated for 24 hours at 37 °C (110 rpm) for Pseudomonas aeruginosa bacterial biofilms or for 72 hours at 22 °C (60 rpm) for Listeria monocytogenes. Following incubation, planktonic cells were rinsed away by switching the 96-peg lid to a sterile 96-well microplate with 200 μL of sterile PBS per well. Pegs with established biofilms were incubated with 200 μL of histone H5 (dissolved in sterile water, pH 7.4), in wells of another sterile 96-well microplate containing serially two-fold dilutions of H5. Solutions of gentamicin and kanamycin served as positive controls for P. aeruginosa and L. monocytogenes, respectively, whereas sterile water (pH 7.4) served as a negative control. The device was incubated for 2 hours at 37 °C, 110 rpm for P. aeruginosa and at 22 °C, 60 rpm for L. monocytogenes. The 96-peg lid was then rinsed twice as described above and placed on a sterile 96-well microplate with 200 μL of LB broth (P. aeruginosa) or BHI broth (L. monocytogenes) per well. The microplate was sonicated for 10 minutes (P. aeruginosa) or 30 minutes (L. monocytogenes) in order to dislodge the biofilms from the pegs, after which the peg-lid was replaced with a sterile, normal lid. This microplate was incubated in the EON microplate reader overnight at 37 °C (206 oscillations/min). The EON microplate spectrophotometer with Gen5 data analysis software (BioTek, Winooski, VT, USA) was used to monitor the growth of bacteria by measuring the optical density at 600 nm every 30 minutes for 24 hours (P. aeruginosa) or 48 hours (L. monocytogenes). The lowest histone H5 concentration without visible bacterial growth was designated as the minimum biofilm eradication concentration (MBEC). Additionally, a standard curve for the number of viable bacteria in the inoculum versus bacterial growth lag time was generated, since every microplate additionally contained wells with serially ten-fold diluted bacteria obtained from the uninhibited biofilm control (sterile H2O). Bacterial growth inhibition for each histone H5 concentration tested was determined from this standard curve.

The test system of assay [2] is Pseudomonas aeruginosa biofilms. The assay is described as above. The settings on record: 2 h treatment at 37 °C; for biofilm growth inhibition (log inhibition): versus untreated control, three independent trials, P < 0.04. Type of assay: cell-based. On the procedure:
as §1, §2

The subject of assay [3] is Pseudomonas aeruginosa (ATCC 15442). As to the method:
(§3) Antimicrobial activity of histone H5 against a variety of Gram-positive and Gram-negative planktonic bacteria was evaluated using a broth microdilution assay.
(§4) The antimicrobial activity of these peptides against Gram-positive and Gram-negative planktonic bacteria was evaluated using broth microdilution assays.
(§5) The bacterial strains tested in this study were Gram-positive bacteria (Bacillus cereus (ATCC 11778), methicillin-sensitive Staphylococcus aureus (ATCC 6538), methicillin-resistant Staphylococcus aureus (ATCC 29247), Listeria monocytogenes (ATCC 19112), Enterococcus faecalis (clinical isolate) and vancomycin-resistant Enterococcus (ATCC 51299)) and Gram-negative bacteria Escherichia coli K12 (ATCC 29425), Escherichia coli (O157:H7), Pseudomonas aeruginosa (ATCC 15442) and Salmonella typhimurium (ATCC 1535)). Bacterial colonies from glycerol stocks were plated on LB agar plates (BHI agar plates for L. monocytogenes) and incubated overnight at 37 °C. Single colonies from these plates were grown in 3 mL of LB broth (BHI broth for L. monocytogenes) overnight at 37 °C and shaken at 250 rpm. […] The bacterial suspension was pelleted at 3,000 × g, 4 °C for 10 minutes and washed with PBS (twice), and then adjusted to 10^5–10^6 CFUs/mL in PBS.
(§6) Supplementary Information
(§7) Broth microdilution assay
(§8) The protocol for this step of the project was based on established methods22. Histone H5 or the peptides were dissolved in sterile water, pH 7.4, serially two-fold diluted and aliquoted in a 1:1 (v/v) ratio with bacteria. Kanamycin or ampicillin served as a positive control for inhibition, and sterile water (pH 7.4) as a negative control for inhibition. The tubes were then incubated for 3 hours at 37°C an d shaken at 200 rpm. Next, 100 µL of each tube and 100µL of LB broth (BHI broth for L. monocytogenes) was plated in wells of a 96-well microplate. The microplate was incubated in the EON microplate reader overnight at 206 oscillations/min and at 37°C. During this period, the EON microplate spectrophotometer and Gen5 data analysis software (BioTek, Winooski, VT, USA) were used to monitor the growth of bacteria by measuring the optical density at 600 nm every 30 minutes for 18 hours. The lowest protein concentration without visible bacterial growth was designated as the minimum inhibitory concentration (MIC). Bacteria (10 µL) from the wells at MIC, MIC x 2 and MIC x 3 concentrations of H5 were plated on LB agar (BHI agar for L. monocytogenes) and incubated at 37°C for 18 hours. The lowest concentration of histone H5 without a single colony was designated as the minimum bactericidal concentration (MBC).

In assay [4] the test system is Listeria monocytogenes (ATCC 19112). The settings on record: for MIC: broth microdilution. On the procedure:
as §3, §4, §5, §6, §7, §8
For orientation: Broth dilution looks for growth in wells or tubes with falling amounts of substance.

B1: histone H5: erythrocyte-specific linker histone purified from chicken erythrocytes, 190 amino acids (protein, UniProt P02259 2-190, looked up)
Histone H5: TESLVLSPAPAKPKRVKASRRSASHPTYSEMIAAAIRAEKSRGGSSRQSIQKYIKSHYKVGHNADLQIKLSIRRLLAAGVLKQTKGVGASGSFRLAKSDKAKRSPGKKKKAVRRSTSPKKAARPRKARSPAKKPKATARKARKKSRASPKKAKKPKTVKAKSRKASKAKKVKRSKPRAKSGARKSPKKK
Take B1: the MBEC/MIC ratio in assay [1] (MBEC 19.1 ± 13.1 µg/mL versus planktonic MIC) was about 5 fold. In addition, the MBEC in assay [1] (biofilm grown 72 h at 22 °C on pegs, 2 h treatment at 22 °C, recovery growth OD600 48 h in BHI broth, mean ± SD, n = 3) is reported as 19.1 ± 13.1 µg/mL; in assay [2] (biofilm grown 24 h at 37 °C on pegs, recovery growth OD600 24 h in LB broth, highest concentration 128 µg/mL, n = 3) it was over 128 µg/mL. The “biofilm growth inhibition (log inhibition)” value in assay [2] (32 µg/mL) is recorded as 0.7 ± 0.2 log inhibition; in assay [2] (64 µg/mL) it was 1.6 ± 0.5 log inhibition; in assay [2] (128 µg/mL), 2.3 ± 0.9 log inhibition. The minimal inhibitory concentration (MIC) in assay [3] (broth microdilution, MIC given in molar units) stood at 0.1 ± 0.1 µM; in assay [3] (broth microdilution, 3 h at 37 °C, then OD600 growth 18 h in LB broth, mean ± SD, n = 3), 2.9 ± 1 µg/mL; in assay [3] (value in the figure, representative of three independent trials, each in triplicate) it was 4 µg/mL; in assay [4] (MIC given in molar units), 0.2 ± 0 µM; in assay [4] (3 h at 37 °C, then OD600 growth 18 h in BHI broth, mean ± SD, n = 3), 4 ± 0 µg/mL. The MBC in assay [3] (plated on LB agar, 37 °C 18 h, lowest concentration without a single colony, mean ± SD, n = 3) turned out to be 2.9 ± 1 µg/mL; in assay [4] (plated on BHI agar, 37 °C 18 h, lowest concentration without a single colony, mean ± SD, n = 3), 4.4 ± 0.8 µg/mL.

(Values after article PMC5799255, “Histone H5 is a potent Antimicrobial Agent and a template for novel Antimicrobial Peptides” (Scientific Reports, 2018).)
